Where a chain is given by its changes, count along the chain named. Where two headings read alike, the source gives them in different places.
How the values were obtained:
Assay in all cases: cell-based or functional assay
[1] = target: T1, corticotropin-releasing hormone (CRH) peptide (human and mouse, UniProt P01143 145-185 (rat entry), not fully specified)
T1 peptide: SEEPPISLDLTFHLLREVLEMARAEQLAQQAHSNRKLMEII

[2] = target: T1, corticotropin-releasing hormone (CRH) …
[3] = target: T1, corticotropin-releasing hormone (CRH) …

B1: PR302309-13 (antibody, human IgG1, kappa, V domains shown)
VH: QVQLVQSGSELKKPGASVKVSCKASGYTFTNYGMNWVRQAPGQGLEWMGWINTYTGEPIYTDDFKGRFVFSLDTSVSTAYLQISSLKAEDTAVYYCARSTMITTGGVFAYWGQGTLVTVSS
VL: DVLMAQTPLSLPVSLGDQASISCRSSQTIVHSDGNTYLEWYLQKPGQSPKLLIYKVSNRFSGVPDRFSGSGSGTDFTLKISRVEAEDLGVYYCFQGSHVPWTFGGGTKLEIKR
hCRHR1-Luc 0.5 nM CRH IC50 [1]: 7.23 nM

B2: PR302309-14 (antibody, human IgG1, kappa, V domains shown)
VH: B1 VH with V2I, A97S
VL: B1 VL
hCRHR1-Luc 0.5 nM CRH IC50 [1]: 1.68 nM

B3: PR302309-16 (antibody, human IgG1, kappa, V domains shown)
VH: QIQLVQSGAEVKKPGASVKVSCKASGYTFTNYGMNWVRQAPGQRLEWMGWINTYTGEPIYTDDFKGRVTITLDTSASTAYMELSSLRSEDTAVYYCSRSTMITTGGVFAYWGQGTLVTVSS
VL: B1 VL
hCRHR1-Luc 0.5 nM CRH IC50 [1]: 5.47 nM

B4: PR302309-15 (antibody, human IgG1, kappa, V domains shown)
VH: B3 VH with I2V, L72R, S97A
VL: B1 VL
hCRHR1-Luc 0.5 nM CRH IC50 [1]: 10.5 nM

B5: PR302334-25 (antibody, human IgG1, kappa, V domains shown)
VH: EVQLVESGGGLVKPGGSLRLSCAASGFTFSTYAMSWVRQAPGKGLEWVASIRSGGTTYYPDSVKGRFTISRDNAKNSLYLQMNSLRAEDTAVYYCTRGIDWGQGTTVTVSS
VL: DIQMTQSSLSASVSLGDRVTITCKASQSVNNDVAWYQQKPGKAPRLLIYYASNRYTGVPSRFSGSGSGTDFTFTISSLQPEDLATYFCQQDYSSWTFGGGTKVEIKR
hCRHR1-Luc 0.5 nM CRH IC50 [2]: 1.7 nM

B6: PR302334-22 (antibody, human IgG1, kappa, V domains shown)
VH: B5 VH with K13Q, A49S, A74S, T96A
VL: EIVMTQSPATLSVSPGERATLSCKASQSVNNDVAWYQQKPGQAPRLLIYYASNRYTGIPARFSGSGSGTEFTLTISSLQSEDLAVYFCQQDYSSWTFGGGTKVEIKR
hCRHR1-Luc 0.5 nM CRH IC50 [2]: 0.92 nM

B7: PR302334-17 (antibody, human IgG1, kappa, V domains shown)
VH: B5 VH with K13Q, A49S, A74S, T96A
VL: NIVMTQTPKFLLVSAGDRITITCKASQSVNNDVAWYQQKPGQSPKLLIYYASNRYTGVPDRFTGSGYGTDFTFTISTVQAEDLAVYFCQQDYSSWTFGGGTNLEIKR
hCRHR1-Luc 0.5 nM CRH IC50 [2]: 12.2 nM

B8: PR302334-18 (antibody, human IgG1, kappa, V domains shown)
VH: B5 VH with K13Q, A74S
VL: B7 VL
hCRHR1-Luc 0.5 nM CRH IC50 [2]: 0.279 nM

B9: PR302309-1 (antibody, human IgG1, kappa, V domains shown)
VH: QIQLVQSGPELKKPGETVKISCKASGYTFTNYGMNWVKQAPGKVLKWMGWINTYTGEPIYTDDFKGRFAFSLETSASTAYLQINNLKNEDTATYFCSRSTMITTGGVFAYWGQGTLVTVSA
VL: DVVMTQSPLSLPVTLGQPASISCRSSQTIVHSDGNTYLEWFQQRPGQSPRRLIYKVSNRFSGVPDRFSGSGSGTDFTLKISRVEAEDVGVYYCFQGSHVPWTFGGGTKVEIKR
hCRHR1-Luc 0.5 nM CRH IC50 [1]: 4.42 nM

B10: PR302309-9 (antibody, human IgG1, kappa, V domains shown)
VH: B1 VH with V2I, A97S
VL: B9 VL with V2I, S7T, P12S, L15P, F41Y, Q42L, R44K, R50Q, R51L
hCRHR1-Luc 0.5 nM CRH IC50 [1]: 6.08 nM

B11: PR302309-3 (antibody, human IgG1, kappa, V domains shown)
VH: B9 VH
VL: B9 VL with V2I, S7T, P12S, L15P, F41Y, Q42L, R44K, R50Q, R51L
hCRHR1-Luc 0.5 nM CRH IC50 [1]: 2.22 nM

B12: PR302309-5 (antibody, human IgG1, kappa, V domains shown)
VH: B9 VH
VL: B9 VL with V2I, S7T, L11S, F41L, S48P, R51L, S72A
hCRHR1-Luc 0.5 nM CRH IC50 [1]: 0.454 nM

B13: PR302309-10 (antibody, human IgG1, kappa, V domains shown)
VH: B1 VH with V2I, A97S
VL: B1 VL with L3V, A5T, P12S, S14T, L15P, D17Q, Q18P, K50Q, L109V
hCRHR1-Luc 0.5 nM CRH IC50 [1]: 3.2 nM

B14: PR302309-20 (antibody, human IgG1, kappa, V domains shown)
VH: B3 VH
VL: B1 VL with L3V, A5T, P12S, S14T, L15P, D17Q, Q18P, K50Q, L109V
hCRHR1-Luc 0.5 nM CRH IC50 [1]: 3.07 nM

B15: PR302309-12 (antibody, human IgG1, kappa, V domains shown)
VH: B1 VH with V2I, A97S
VL: B9 VL with S7T, L11S, F41Y, S48P, R51L, S72A, V88L
hCRHR1-Luc 0.5 nM CRH IC50 [1]: 4.47 nM

B16: PR302309-21 (antibody, human IgG1, kappa, V domains shown)
VH: B3 VH
VL: B9 VL with S7T, L11S, F41Y, S48P, R51L, S72A, V88L
hCRHR1-Luc 0.5 nM CRH IC50 [1]: 8.44 nM

B17: PR302309-17 (antibody, human IgG1, kappa, V domains shown)
VH: B1 VH
VL: B9 VL with F41Y, R51L, V88L
hCRHR1-Luc 0.5 nM CRH IC50 [1]: 6.69 nM

B18: PR302309-19 (antibody, human IgG1, kappa, V domains shown)
VH: B3 VH
VL: B9 VL with F41Y, R51L, V88L
hCRHR1-Luc 0.5 nM CRH IC50 [1]: 4.83 nM

B19: PR302309-4 (antibody, human IgG1, kappa, V domains shown)
VH: B9 VH
VL: B1 VL with L3V, A5T, P12S, S14T, L15P, D17Q, Q18P, K50Q, L109V
hCRHR1-Luc 0.5 nM CRH IC50 [1]: 1.26 nM

B20: PR302309-2 (antibody, human IgG1, kappa, V domains shown)
VH: B9 VH
VL: B9 VL with F41Y, R51L, V88L
hCRHR1-Luc 0.5 nM CRH IC50 [1]: 0.773 nM

B21: PR302309-7 (antibody, human IgG1, kappa, V domains shown)
VH: B1 VH with V2I, A97S
VL: B9 VL
hCRHR1-Luc 0.5 nM CRH IC50 [1]: 6.38 nM

B22: PR302309-6 (antibody, human IgG1, kappa, V domains shown)
VH: B9 VH
VL: B9 VL with S7T, L11S, F41Y, S48P, R51L, S72A, V88L
hCRHR1-Luc 0.5 nM CRH IC50 [1]: 1.08 nM

B23: PR301777 (antibody, human IgG1, kappa, V domains shown)
VH: EMKLEESGGGLVQPGGSMKLSCVASGFTFSNYWMNWVRQSPEKGLEWVAEIRLKSNNYATHYAESVKGRFTISRDDSKSGVYLQMNNLGAEDTGIYYCTVGTLVYWGQGTLVTVSA
VL: DIVLTQSPASLAVSLGQRATISCRASQSVSTSTYNYMHWFQQKPGQPPKLLIKFASNLESGVPARFSGSGSGTDFTLNIHPVEEEDTATFYCQHSWEIPYTFGGGTKLEIKR
unlabelled nM value (Table 5 matrix; likely hCRHR1-Luc IC50 as in Tables 6-8) [3]: 0.674 nM

B24: PR302036 (antibody, human IgG1, kappa, V domains shown)
VH: EMQLVESGGGLVQPGGSLRLSCAASGFTFSNYWMNWVRQAPGKGLEWVAEIRLKSNNYATHYAESVKGRFTISRDDSKSSVYLQMNSLKTEDTAVYYCTVGTLVYWGQGTLVTVSS
VL: DIVLTQSPDSLAVSLGERATINCRASQSVSTSTYNYMHWFQQKPGQPPKLLIKFASNLESGVPDRFSGSGSGTDFTLTISSLQAEDTAVYYCQHSWEIPYTFGQGTKLEIKR
unlabelled nM value (Table 5 matrix; likely hCRHR1-Luc IC50 as in Tables 6-8) [3]: 1.4 nM

B25: PR302038 (antibody, human IgG1, kappa, V domains shown)
VH: B24 VH
VL: EIVLTQSPATLSLSPGERATLSCRASQSVSTSTYNYMHWFQQKPGQAPRLLIKFASNLESGIPARFSGSGSGTDFTLTISSLEPEDTAVYYCQHSWEIPYTFGQGTKLEIKR
unlabelled nM value (Table 5 matrix; likely hCRHR1-Luc IC50 as in Tables 6-8) [3]: 3.34 nM

B26: PR302031 (antibody, human IgG1, kappa, V domains shown)
VH: B24 VH with M2V, A49G, S79N, V81L
VL: B25 VL
unlabelled nM value (Table 5 matrix; likely hCRHR1-Luc IC50 as in Tables 6-8) [3]: 14 nM

B27: PR302029 (antibody, human IgG1, kappa, V domains shown)
VH: B24 VH with M2V, A49G, S79N, V81L
VL: B24 VL
unlabelled nM value (Table 5 matrix; likely hCRHR1-Luc IC50 as in Tables 6-8) [3]: 2.65 nM

B28: PR302052 (antibody, human IgG1, kappa, V domains shown)
VH: B24 VH with R19K, P41S, S80T
VL: B25 VL
unlabelled nM value (Table 5 matrix; likely hCRHR1-Luc IC50 as in Tables 6-8) [3]: 2.05 nM

B29: PR302066 (antibody, human IgG1, kappa, V domains shown)
VH: B24 VH with Q13K, S80T
VL: B25 VL
unlabelled nM value (Table 5 matrix; likely hCRHR1-Luc IC50 as in Tables 6-8) [3]: 2.49 nM

B30: PR302050 (antibody, human IgG1, kappa, V domains shown)
VH: B24 VH with R19K, P41S, S80T
VL: B24 VL
unlabelled nM value (Table 5 matrix; likely hCRHR1-Luc IC50 as in Tables 6-8) [3]: 0.572 nM

B31: PR302045 (antibody, human IgG1, kappa, V domains shown)
VH: B24 VH with M2V, R19K, P41S, A49G, S79N, S80T, V81A, V100R
VL: B25 VL
unlabelled nM value (Table 5 matrix; likely hCRHR1-Luc IC50 as in Tables 6-8) [3]: 15.3 nM

B32: PR302043 (antibody, human IgG1, kappa, V domains shown)
VH: B24 VH with M2V, R19K, P41S, A49G, S79N, S80T, V81A, V100R
VL: B24 VL
unlabelled nM value (Table 5 matrix; likely hCRHR1-Luc IC50 as in Tables 6-8) [3]: 3.87 nM
